The record followed here is publication PMC8103094, “Androgen receptor (AR) antagonism triggers acute succinate‐mediated adaptive responses to reactivate AR signaling”.

The series concerns the target Androgen receptor DNA-binding domain (AR-DBD) (UniProt P10275 560-632). In words: EMSA; Odyssey infrared EMSA kit (LI-COR): 2.5 mM DTT/0.25% Tween 20, poly(dI.dC), room temperature 30 min, increasing protein; 6% TBE native gel; salt and pH not stated. As to conditions: protein: recombinant; chain copies: 2; label: 5' IRDye700 on both strands; blunt. On the technique in general: A gel shift assay detects complexes by their altered migration in electrophoresis.

Androgen receptor DNA-binding domain (AR-DBD), sequence (P10275 560-632): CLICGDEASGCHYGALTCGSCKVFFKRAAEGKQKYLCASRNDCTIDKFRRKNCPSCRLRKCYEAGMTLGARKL

B1: SDHA ARE probe (dsDNA)
DNA 1: GCGACTTGTGCTGGCTGAGGGA
DNA 2: TCCCTCAGCCAGCACAAGTCGC
As for B1, the binding result was “binds”.

B2: SDHB ARE probe (dsDNA)
DNA 1: AGAGCTCCCTGTACTTTCCCAACA
DNA 2: TGTTGGGAAAGTACAGGGAGCTCT
Take B2: the binding result was “binds”.
